Laboratory results: the supplement of paper PMC5998384

How the values were obtained:
[1] = test system: HeLa Kyoto; assay: solubility in G1/S (NP-40 vs SDS abundance) (log2 ratio); higher = more soluble; conditions: cell cycle stage: G1/S
[2] = test system: HeLa Kyoto; assay: melting temperature (median over replicates), in situ; higher = more thermally stable
[3] = test system: HeLa Kyoto; assay: solubility change mitosis vs G1/S (difference of NP-40 vs SDS log2 ratios) (log2 ratio difference); higher = more soluble in mitosis
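Throughout, for melting temperature (median over replicates), in situ: HeLa Kyoto cells synchronized by double thymidine or nocodazole block, proteins quantified by TMT10plex mass spectrometry, three independent biological replicates.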
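Throughout, for solubility change mitosis vs G1/S (difference of NP-40 vs SDS log2 ratios): synchronized HeLa Kyoto cells (double thymidine block for G1/S, nocodazole release for mitosis), protein amounts in NP-40 versus SDS lysates quantified by mass spectrometry, three biological replicates.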
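Throughout, for solubility in G1/S (NP-40 vs SDS abundance): HeLa Kyoto cells arrested at G1/S by double thymidine block, proteins quantified by TMT10plex mass spectrometry in mild NP-40 versus SDS extracts, three biological replicates.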

Chain of MARK1 (chain, as listed by the source): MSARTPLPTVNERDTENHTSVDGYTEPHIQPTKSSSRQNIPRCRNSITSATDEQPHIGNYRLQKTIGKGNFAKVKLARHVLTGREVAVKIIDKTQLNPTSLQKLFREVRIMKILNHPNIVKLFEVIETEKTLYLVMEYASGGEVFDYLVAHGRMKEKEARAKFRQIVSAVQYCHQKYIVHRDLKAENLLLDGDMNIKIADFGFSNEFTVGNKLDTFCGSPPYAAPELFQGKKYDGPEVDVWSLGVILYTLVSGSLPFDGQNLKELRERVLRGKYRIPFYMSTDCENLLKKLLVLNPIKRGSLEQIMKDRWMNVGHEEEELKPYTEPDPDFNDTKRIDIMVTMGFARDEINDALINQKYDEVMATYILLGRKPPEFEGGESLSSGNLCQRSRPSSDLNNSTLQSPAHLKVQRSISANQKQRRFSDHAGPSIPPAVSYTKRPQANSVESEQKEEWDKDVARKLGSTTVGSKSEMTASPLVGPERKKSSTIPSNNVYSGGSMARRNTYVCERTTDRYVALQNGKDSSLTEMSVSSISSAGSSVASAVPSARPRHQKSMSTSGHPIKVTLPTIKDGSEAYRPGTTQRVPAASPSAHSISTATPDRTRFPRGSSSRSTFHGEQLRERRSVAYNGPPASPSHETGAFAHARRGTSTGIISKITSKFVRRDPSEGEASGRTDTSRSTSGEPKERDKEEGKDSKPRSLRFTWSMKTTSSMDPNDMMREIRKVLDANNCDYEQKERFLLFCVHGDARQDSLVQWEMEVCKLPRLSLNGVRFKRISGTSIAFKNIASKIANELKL

| Substance | solubility in G1/S (log2) [1] | melting temperature ([2]; cell cycle stage: G1/S) | melting temperature ([2]; cell cycle stage: mitosis) | solubility change mitosis (log2) [3] |
| --- | --- | --- | --- | --- |
| MALAGCPDSFLHHPYYQDKVEQTPRSQQDPAGPGLPAQSDRLANHQEDDVDLEALVNDMNASLESLYSACSMQSDTVPLLQNGQHARSQPRASGPPRSIQPQVSPRQRVQRSQPVHILAVRRLQEEDQQFRTSSLPAIPNPFPELCGPGSPPVLTPGSLPPSQAAAKQDVKVFSEDGTSKVVEILADMTARDLCQLLVYKSHCVDDNSWTLVEHHPHLGLERCLEDHELVVQVESTMASESKFLFRKNYAKYEFFKNPMNFFPEQMVTWCQQSNGSQTQLLQNFLNSSSCPEIQGFLHVKELGKKSWKKLYVCLRRSGLYCSTKGTSKEPRHLQLLADLEDSNIFSLIAGRKQYNAPTDHGLCIKPNKVRNETKELRLLCAEDEQTRTCWMTAFRLLKYGMLLYQNYRIPQQRKALLSPFSTPVRSVSENSLVAMDFSGQTGRVIENPAEAQSAALEEGHAWRKRSTRMNILGSQSPLHPSTLSTVIHRTQHWFHGRISREESHRIIKQQGLVDGLFLLRDSQSNPKAFVLTLCHHQKIKNFQILPCEDDGQTFFSLDDGNTKFSDLIQLVDFYQLNKGVLPCKLKHHCIRVAL [GRB10] | 0.159 | 48.1 °C | 49.1 °C | -0.231 |
| MAPERLRSRALSAFKLRGLLLRGEAIKYLTEALQSISELELEDKLEKIINAVEKQPLSSNMIERSVVEAAVQECSQSVDETIEHVFNIIGAFDIPRFVYNSERKKFLPLLMTNHPAPNLFGTPRDKAEMFRERYTILHQRTHRHELFTPPVIGSHPDESGSKFQLKTIETLLGSTTKIGDAIVLGMITQLKEGKFFLEDPTGTVQLDLSKAQFHSGLYTEACFVLAEGWFEDQVFHVNAFGFPPTEPSSTTRAYYGNINFFGGPSNTSVKTSAKLKQLEEENKDAMFVFLSDVWLDQVEVLEKLRIMFAGYSPAPPTCFILCGNFSSAPYGKNQVQALKDSLKTLADIICEYPDIHQSSRFVFVPGPEDPGFGSILPRPPLAESITNEFRQRVPFSVFTTNPCRIQYCTQEITVFREDLVNKMCRNCVRFPSSNLAIPNHFVKTILSQGHLTPLPLYVCPVYWAYDYALRVYPVPDLLVIADKYDPFTTTNTECLCINPGSFPRSGFSFKVFYPSNKTVEDSKLQGF [POLE2] | 0.148 | 50 °C | 49.6 °C | -0.129 |
| MAQEEEDVRDYNLTEEQKAIKAKYPPVNRKYEYLDHTADVQLHAWGDTLEEAFEQCAMAMFGYMTDTGTVEPLQTVEVETQGDDLQSLLFHFLDEWLYKFSADEFFIPREVKVLSIDQRNFKLRSIGWGEEFSLSKHPQGTEVKAITYSAMQVYNEENPEVFVIIDI [ZBTB8OS] | 0.153 | 52.6 °C | 53.1 °C | 0.0908 |
| MAQGWAGFSEEELRRLKQTKDPFEPQRRLPAKKSRQQLQREKALVEQSQKLGLQDGSTSLLPEQLLSAPKQRVNVQKPPFSSPTLPSHFTLTSPVGDGQPQGIESQPKELGLENSHDGHNNVEILPPKPDCKLEKKKVELQEKSRWEVLQQEQRLMEEKNKRKKALLAKAIAERSKRTQAETMKLKRIQKELQALDDMVSADIGILRNRIDQASLDYSYARKRFDRAEAEYIAAKLDIQRKTEIKEQLTEHLCTIIQQNELRKAKKLEELMQQLDVEADEETLELEVEVERLLHEQEVESRRPVVRLERPFQPAEESVTLEFAKENRKCQEQAVSPKVDDQCGNSSSIPFLSPNCPNQEGNDISAALAT [GORAB] | 0.431 |  | 50.9 °C | 0.118 |
| MAQQANVGELLAMLDSPMLGVRDDVTAVFKENLNSDRGPMLVNTLVDYYLETSSQPALHILTTLQEPHDKHLLDRINEYVGKAATRLSILSLLGHVIRLQPSWKHKLSQAPLLPSLLKCLKMDTDVVVLTTGVLVLITMLPMIPQSGKQHLLDFFDIFGRLSSWCLKKPGHVAEVYLVHLHASVYALFHRLYGMYPCNFVSFLRSHYSMKENLETFEEVVKPMMEHVRIHPELVTGSKDHELDPRRWKRLETHDVVIECAKISLDPTEASYEDGYSVSHQISARFPHRSADVTTSPYADTQNSYGCATSTPYSTSRLMLLNMPGQLPQTLSSPSTRLITEPPQATLWSPSMVCGMTTPPTSPGNVPPDLSHPYSKVFGTTAGGKGTPLGTPATSPPPAPLCHSDDYVHISLPQATVTPPRKEERMDSARPCLHRQHHLLNDRGSEEPPGSKGSVTLSDLPGFLGDLASEEDSIEKDKEEAAISRELSEITTAEAEPVVPRGGFDSPFYRDSLPGSQRKTHSAASSSQGASVNPEPLHSSLDKLGPDTPKQAFTPIDLPCGSADESPAGDRECQTSLETSIFTPSPCKIPPPTRVGFGSGQPPPYDHLFEVALPKTAHHFVIRKTEELLKKAKGNTEEDGVPSTSPMEVLDRLIQQGADAHSKELNKLPLPSKSVDWTHFGGSPPSDEIRTLRDQLLLLHNQLLYERFKRQQHALRNRRLLRKVIKAAALEEHNAAMKDQLKLQEKDIQMWKVSLQKEQARYNQLQEQRDTMVTKLHSQIRQLQHDREEFYNQSQELQTKLEDCRNMIAELRIELKKANNKVCHTELLLSQVSQKLSNSESVQQQMEFLNRQLLVLGEVNELYLEQLQNKHSDTTKEVEMMKAAYRKELEKNRSHVLQQTQRLDTSQKRILELESHLAKKDHLLLEQKKYLEDVKLQARGQLQAAESRYEAQKRITQVFELEILDLYGRLEKDGLLKKLEEEKAEAAEAAEERLDCCNDGCSDSMVGHNEEASGHNGETKTPRPSSARGSSGSRGGGGSSSSSSELSTPEKPPHQRAGPFSSRWETTMGEASASIPTTVGSLPSSKSFLGMKARELFRNKSESQCDEDGMTSSLSESLKTELGKDLGVEAKIPLNLDGPHPSPPTPDSVGQLHIMDYNETHHEHS [TSC1] | 0.0426 | 50.2 °C | 50.7 °C | -0.187 |
| MAQVLHVPAPFPGTPGPASPPAFPAKDPDPPYSVETPYGYRLDLDFLKYVDDIEKGHTLRRVAVQRRPRLSSLPRGPGSWWTSTESLCSNASGDSRHSAYSYCGRGFYPQYGALETRGGFNPRVERTLLDARRRLEDQAATPTGLGSLTPSAAGSTASLVGVGLPPPTPRSSGLSTPVPPSAGHLAHVREQMAGALRKLRQLEEQVKLIPVLQVKLSVLQEEKRQLTVQLKSQKFLGHPTAGRGRSELCLDLPDPPEDPVALETRSVGTWVRERDLGMPDGEAALAAKVAVLETQLKKALQELQAAQARQADPQPQAWPPPDSPVRVDTVRVVEGPREVEVVASTAAGAPAQRAQSLEPYGTGLRALAMPGRPESPPVFRSQEVVETMCPVPAAATSNVHMVKKISITERSCDGAAGLPEVPAESSSSPPGSEVASLTQPEKSTGRVPTQEPTHREPTRQAASQESEEAGGTGGPPAGVRSIMKRKEEVADPTAHRRSLQFVGVNGGYESSSEDSSTAENISDNDSTENEAPEPRERVPSVAEAPQLRPAGTAAAKTSRQECQLSRESQHIPTAEGASGSNTEEEIRMELSPDLISACLALEKYLDNPNALTERELKVAYTTVLQEWLRLACRSDAHPELVRRHLVTFRAMSARLLDYVVNIADSNGNTALHYSVSHANFPVVQQLLDSGVCKVDKQNRAGYSPIMLTALATLKTQDDIETVLQLFRLGNINAKASQAGQTALMLAVSHGRVDVVKALLACEADVNVQDDDGSTALMCACEHGHKEIAGLLLAVPSCDISLTDRDGSTALMVALDAGQSEIASMLYSRMNIKCSFAPMSDDESPTSSSAEE [KANK2] | -0.0486 | 46.7 °C |  | -0.0916 |
| MARGQQKIQSQQKNAKKQAGQKKKQGHDQKAAAKAALIYTCTVCRTQMPDPKTFKQHFESKHPKTPLPPELADVQA [ZNF706] | -0.28 | 57.5 °C | 54.1 °C | 0.171 |
| MARK1 | -0.155 |  | 49 °C | -0.0417 |
| MASKGPSASASPENSSAGGPSGSSNGAGESGGQDSTFECNICLDTAKDAVISLCGHLFCWPCLHQWLETRPNRQVCPVCKAGISRDKVIPLYGRGSTGQQDPREKTPPRPQGQRPEPENRGGFQGFGFGDGGFQMSFGIGAFPFGIFATAFNINDGRPPPAVPGTPQYVDEQFLSRLFLFVALVIMFWLLIA [RNF185] | 0.352 | 53.4 °C |  | -0.146 |
| MASKLLRAVILGPPGSGKGTVCQRIAQNFGLQHLSSGHFLRENIKASTEVGEMAKQYIEKSLLVPDHVITRLMMSELENRRGQHWLLDGFPRTLGQAEALDKICEVDLVISLNIPFETLKDRLSRRWIHPPSGRVYNLDFNPPHVHGIDDVTGEPLVQQEDDKPEAVAARLRQYKDVAKPVIELYKSRGVLHQFSGTETNKIWPYVYTLFSNKITPIQSKEAY [AK4] | 0.384 |  | 51.3 °C | 0.0928 |
| MASQNRDPAATSVAAARKGAEPSGGAARGPVGKRLQQELMTLMMSGDKGISAFPESDNLFKWVGTIHGAAGTVYEDLRYKLSLEFPSGYPYNAPTVKFLTPCYHPNVDTQGNICLDILKEKWSALYDVRTILLSIQSLLGEPNIDSPLNTHAAELWKNPTAFKKYLQETYSKQVTSQEP [UBE2C] | -0.443 |  | 49.9 °C | 0.955 |
| MASRRKSTTPCMVLASEQDPDLELISDLDEGPPVLTPVENTRAESISSDEEVHESVDSDNQQNKKVEGGYECKYCTFQTPDLNMFTFHVDSEHPNVVLNSSYVCVECNFLTKRYDALSEHNLKYHPGEENFKLTMVKRNNQTIFEQTINDLTFDGSFVKEENAEQAESTEVSSSGISISKTPIMKMMKNKVENKRIAVHHNSVEDVPEEKENEIKPDREEIVENPSSSASESNTSTSIVNRIHPSTASTVVTPAAVLPGLAQVITAVSAQQNSNLIPKVLIPVNSIPTYNAALDNNPLLLNTYNKFPYPTMSEITVLSAQAKYTEEQIKIWFSAQRLKHGVSWTPEEVEEARRKQFNGTVHTVPQTITVIPTHISTGSNGLPSILQTCQIVGQPGLVLTQVAGTNTLPVTAPIALTVAGVPSQNNIQKSQVPAAQPTAETKPATAAVPTSQSVKHETALVNPDSFGIRAKKTKEQLAELKVSYLKNQFPHDSEIIRLMKITGLTKGEIKKWFSDTRYNQRNSKSNQCLHLNNDSSTTIIIDSSDETTESPTVGTAQPKQSWNPFPDFTPQKFKEKTAEQLRVLQASFLNSSVLTDEELNRLRAQTKLTRREIDAWFTEKKKSKALKEEKMEIDESNAGSSKEEAGETSPADESGAPKSGSTGKICKKTPEQLHMLKSAFVRTQWPSPEEYDKLAKESGLARTDIVSWFGDTRYAWKNGNLKWYYYYQSANSSSMNGLSSLRKRGRGRPKGRGRGRPRGRPRGSKRINNWDRGPSLIKFKTGTAILKDYYLKHKFLNEQDLDELVNKSHMGYEQVREWFAERQRRSELGIELFEENEEEDEVIDDQEEDEEETDDSDTWEPPRHVKRKLSKSDD [ZHX1] | 0.0738 | 48.3 °C | 48.9 °C | -0.162 |
| MASYYEILDVPRSASADDIKKAYRRKALQWHPDKNPDNKEFAEKKFKEVAEAYEVLSDKHKREIYDRYGREGLTGTGTGPSRAEAGSGGPGFTFTFRSPEEVFREFFGSGDPFAELFDDLGPFSELQNRGSRHSGPFFTFSSSFPGHSDFSSSSFSFSPGAGAFRSVSTSTTFVQGRRITTRRIMENGQERVEVEEDGQLKSVTINGVPDDLALGLELSRREQQPSVTSRSGGTQVQQTPASCPLDSDLSEDEDLQLAMAYSLSEMEAAGKKPAGGREAQHRRQGRPKAQHQDPGLGGTQEGARGEATKRSPSPEEKASRCLIL [DNAJB2] | 0.0895 | 50.2 °C | 50.5 °C | 0.274 |
| MATQAHSLSYAGCNFLRQRLVLSTLSGRPVKIRKIRARDDNPGLRDFEASFIRLLDKITNGSRIEINQTGTTLYYQPGLLYGGSVEHDCSVLRGIGYYLESLLCLAPFMKHPLKIVLRGVTNDQVDPSVDVLKATALPLLKQFGIDGESFELKIVRRGMPPGGGGEVVFSCPVRKVLKPIQLTDPGKIKRIRGMAYSVRVSPQMANRIVDSARSILNKFIPDIYIYTDHMKGVNSGKSPGFGLSLVAETTSGTFLSAELASNPQGQGAAVLPEDLGRNCARLLLEEIYRGGCVDSTNQSLALLLMTLGQQDVSKVLLGPLSPYTIEFLRHLKSFFQIMFKIETKPCGEELKGGDKVLMTCVGIGFSNLSKTLK [RCL1] | -1.92 | 52.4 °C | 52.3 °C | 0.888 |
